Bridge positions count the residues as written; N and C are the ends. Ends that are not written are not given here. * marks the point of attachment. Biotin = O=C1N[C@H]2[C@H](CS[C@H]2CCCCC(=O)*)N1
B1: IR485 construct of human insulin receptor (receptor)
chain: HLYPGEVCPGMDIRNNLTRLHELENCSVIEGHLQILLMFKTRPEDFRDLSFPKLIMITDYLLLFRVYGLESLKDLFPNLTVIRGSRLFFNYALVIFEMVHLKELGLYNLMNITRGSVRIEKNNELCYLATIDWSRILDSVEDNHIVLNKDDNEECGDICPGTAKGKTNCPATVINGQFVERCWTHSHCQKVCPTICKSHGCTAEGLCCHSECLGNCSQPDDPTKCVACRNFYLDGRCVETCPPPYYHFQDWRCVNFSFCQDLHHKCKNSRRQGCHQYVIHNNKCIPECPSGYTMNSSNLLCTPCLGPCPKVCHLLEGEKTIDSVTSAQELRGCTVINGSLIINIRGGNNLAAELEANLGLIEEISGYLKIRRSYALVSLSFFRKLRLIRGETLEIGNYSFYALDNQNLRQLWDWSKHNLTTTQGKLFFHYNPKLCLSEIHKMEEVSGTKGRQERNDIALKTNGDKASCENELLKFSYIRTSFDKISDDDDKEQKLISEEDLN
notes: The tag was not removed for ITC; Expressed in Lec8 mutant CHO cells; also called insulin mini-receptor IR485; first three domains of IR (L1-CR-L2)

Key:
[1] = target: T1, Zinc-free porcine insulin (porcine, UniProt P01315 88-108; P01315 25-54); assay: ITC, 25 °C, IR αCT peptide 200 µM titrated into ZFP-insulin 20 µM
T1 construct: mature; Made zinc-free by dialysis against 0.1% acetic acid and lyophilisation; also called ZFP-insulin
Experimental: (§1) ITC experiments were performed using a VP-ITC isothermal titration calorimeter (MicroCal Inc., USA) with the calorimeter cell held at 25° C. All samples were degassed prior to injection or placement into the cell, and the instrument was temperature equilibrated prior to the start of the injections. In all experiments the volume of sample placed in the cell was 1.4 ml and the titrant was injected in 7 μl volumes over 14 s at 3 min intervals, with the total number of injections being 40. The sample contents were stirred at a speed of 310 rpm over the duration of the titration. […] Data were analyzed using the instrument's software incorporated within the Origin 7 software (OriginLab, USA) and in all cases fitted as a single-site interaction using the methodologies outlined in the instrument's manual.

[2] = target: B1; assay: ITC, 25 °C, peptide titrated into IR485, single-site fit, mean of three
Experimental: as §1

[3] = target: B1; assay: ITC, about 25 °C, peptide titrated into IR485
Experimental: (§2) The insulin mini-receptor IR485 construct was produced and purified as previously described (Lou et al., 2006), omitting the final ion-exchange chromatography step. Isothermal titration calorimetry (ITC) experiments were performed using a VP-ITC isothermal titration calorimeter (MicroCal Inc., USA) with the calorimeter cell held at about 25° C. The ITC cell contained insulin mini-receptor IR485 prepared at about 10 μM concentration in Tris-buffered saline plus azide (TBSA; about 24.8 mM Tris-HCl (pH 8.0), 137 mM NaCl, 2.7 mM KCl, and 0.02% sodium azide), and the syringe contained the peptide prepared at about 60 μM concentration in TBSA. All samples were degassed prior to injection or placement into the cell, and the instrument was temperature equilibrated prior to the start of the injections.
(§3) In all experiments the volume of the insulin mini-receptor IR485 sample placed in the cell was about 1.4 ml and the titrant was injected in about 7 μl volumes over 14 s at 3 min intervals, with the total number of injections being 40. The sample contents were stirred at a speed of about 310 rpm over the duration of the titration. All titrants were first injected into a solution of TBSA alone in order ascertain the heat of dilution, which was then subtracted from the data of interest as appropriate. Each experiment was performed three times, except for that employing the native peptide, which was performed twice. Data were analyzed using the instrument's software incorporated within the Origin 7 software (OriginLab, USA) and in all cases fitted as a single-site interaction using the methodologies outlined in the instrument's manual.

[4] = target: B1; assay: ITC, about 25 °C, peptide about 60 µM titrated into IR485 about 10 µM
Experimental: as §2, §3

[5] = target: B1; assay: ITC, mutant αCT peptides 698-719 titrated into IR485
Experimental: as §2
as §3, with “All titrants were first injected into a solution of TBSA alone in order ascertain the heat of dilution, which was then subtracted from the data of interest as appropriate. Each experiment was performed three times, except for that employing the native peptide, which was performed twice.” left out

[6] = target: B1; assay: ITC, 25 °C, S519N20 50 µM titrated into IR485 5 µM
Experimental: as §1

[7] = target: B1; assay: ITC, 25 °C, peptide titrated into IR485
Human IGF-I [8] = target: T2, Human IGF-I (human, UniProt P05019 49-118); assay: ITC, 25 °C, IGF-I titrated into IR485 pre-mixed with 10-fold IGF-1R αCT peptide
T2 construct: mature
Experimental: as §1

[9] = target: T1, Zinc-free porcine insulin; assay: ITC, 25 °C, hormone titrated into IR485 pre-mixed with 10-fold IGF-1R αCT peptide
Experimental: as §1

Human IGF-I [10] = target: T2, Human IGF-I; assay: ITC, 25 °C, IGF-I titrated into IR485 pre-mixed with 10-fold IR αCT peptide
Experimental: as §1

[11] = target: T1, Zinc-free porcine insulin; assay: ITC, 25 °C, hormone titrated into IR485 pre-mixed with 10-fold IR αCT peptide
Experimental: as §1

Human IGF-I [12] = target: T2, Human IGF-I; assay: ITC, 25 °C, IGF-I 100 µM titrated into IR485 10 µM
Experimental: as §1

[13] = target: T1, Zinc-free porcine insulin; assay: ITC, 25 °C, ZFP-insulin 50 µM titrated into IR485 5 µM
Experimental: as §1

Human IGF-I [14] = target: T2, Human IGF-I; assay: ITC, 25 °C, IGF-1R αCT peptide 200 µM titrated into IGF-I 20 µM
Experimental: as §1

[15] = target: B1; assay: ITC, 25 °C, S519C16 titrated into IR485 pre-mixed with a 10-fold molar ratio of IR αCT peptide (competitor)
Experimental: as §1

[16] = target: B1; assay: ITC, 25 °C, S519C16 titrated into IR485 pre-mixed with a 10-fold molar ratio of IR αCT peptide (competitor); apparent Kd; IR485 in the presence of a 10-fold molar ratio of IR αCT peptide
Experimental: as §1

T1 sequence (P01315 88-108 limits assumed, chain 1 of 2): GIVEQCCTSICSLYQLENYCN
T1 sequence (P01315 25-54 limits assumed, chain 2 of 2): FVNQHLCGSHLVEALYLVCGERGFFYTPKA

Row | Binder | TΔS° [3] | ΔG° [3] | ΔH° [3] | Kd [4] | further results
1 | TFEDYLHNVVFVPRPS (Mature IR-A numbering; also called IR αCT; IR-αCT) [IR classical α-chain C-terminal peptide (residues 704-719)] | – | – | – | – | Kd [1]: > 1000 µM; Kd [2]: 3.9 µM
2 | TFEDYLHNVVAVPRPS (also called IR αCT.714A; IR-αCT.714A) [F714A mutant of the IR classical αCT peptide] | – | – | – | – | Kd [2]: 6.5 µM
3 | Biotin-ESSFRKTFEDYLHNVVFVPRPS (Genscript, >75% purity; also called wt; native peptide) [N-terminally biotinylated IR αCT peptide 698-719, wild type] | -3.35 kcal/mol | -8.01 kcal/mol | -11.5 kcal/mol | 1.34 µM | –
4 | Biotin-ESSFRKWFEDYLHNVVFVPRPS [N-terminally biotinylated IR αCT peptide 698-719, T704W] | 2.63 kcal/mol | -9.13 kcal/mol | -6.21 kcal/mol | 0.201 µM | –
5 | Biotin-ESSFYKWFEDYLHNVVFVPRPS [N-terminally biotinylated IR αCT peptide 698-719, R702Y/T704W] | -1.2 kcal/mol | -10.6 kcal/mol | -11.7 kcal/mol | 0.018 µM | fold increase in affinity against the wild type peptide [5]: ≤ 100 fold
6 | Biotin-ESSFWKTFEDYLHNVVFVPRPS [N-terminally biotinylated IR αCT peptide 698-719, R702W] | -0.717 kcal/mol | -8.89 kcal/mol | -8.37 kcal/mol | 0.309 µM | –
7 | Biotin-ESSFRKYFEDYLHNVVFVPRPS [N-terminally biotinylated IR αCT peptide 698-719, T704Y] | -2.63 kcal/mol | -8.37 kcal/mol | -11 kcal/mol | 0.74 µM | –
8 | Biotin-ESSFYKTFEDYLHNVVFVPRPS [N-terminally biotinylated IR αCT peptide 698-719, R702Y] | -2.87 kcal/mol | -9 kcal/mol | -12 kcal/mol | 0.249 µM | –
9 | SLEEEWAQVECEVYGRGCPS (disulfide 11-18 (inferred), Synthetic peptide, AusPep, >90% purity; also called Site 2 peptide, the 20 N-terminal residues of S519) [S519N20 peptide] | – | – | – | – | Kd [6]: > 1000 µM
10 | SLEEEWAQVECEVYGRGCPSGSLDESFYDWFERQLG (disulfide 11-18 (inferred), 36-residue synthetic peptide, Activotec, >85% purity; also called insulin mimetic peptide S519) [S519 peptide] | – | – | – | – | -TΔS^0 [7]: 5.74 kcal/mol; Kd [7]: 0.011 µM; ΔH^0 [7]: -16.5 kcal/mol
11 | IR485 pre-complexed with a 10-fold molar ratio of IGF-1R classical αCT peptide (other, Non-covalent receptor fragment and peptide mixture in the ITC cell; also called IR485 + (10 × IGF1R-αCT)) HLYPGEVCPGMDIRNNLTRLHELENCSVIEGHLQILLMFKTRPEDFRDLSFPKLIMITDYLLLFRVYGLESLKDLFPNLTVIRGSRLFFNYALVIFEMVHLKELGLYNLMNITRGSVRIEKNNELCYLATIDWSRILDSVEDNHIVLNKDDNEECGDICPGTAKGKTNCPATVINGQFVERCWTHSHCQKVCPTICKSHGCTAEGLCCHSECLGNCSQPDDPTKCVACRNFYLDGRCVETCPPPYYHFQDWRCVNFSFCQDLHHKCKNSRRQGCHQYVIHNNKCIPECPSGYTMNSSNLLCTPCLGPCPKVCHLLEGEKTIDSVTSAQELRGCTVINGSLIINIRGGNNLAAELEANLGLIEEISGYLKIRRSYALVSLSFFRKLRLIRGETLEIGNYSFYALDNQNLRQLWDWSKHNLTTTQGKLFFHYNPKLCLSEIHKMEEVSGTKGRQERNDIALKTNGDKASCENELLKFSYIRTSFDKISDDDDKEQKLISEEDLN peptide: VFENFLHNSIFVPRPE | – | – | – | – | Kd (Human IGF-I [8]): 0.022 µM; Kd [9]: 0.0057 µM
12 | IR485 pre-complexed with a 10-fold molar ratio of IR classical αCT peptide (other, Non-covalent receptor fragment and peptide mixture in the ITC cell; also called IR485 + (10 × IR-αCT)) HLYPGEVCPGMDIRNNLTRLHELENCSVIEGHLQILLMFKTRPEDFRDLSFPKLIMITDYLLLFRVYGLESLKDLFPNLTVIRGSRLFFNYALVIFEMVHLKELGLYNLMNITRGSVRIEKNNELCYLATIDWSRILDSVEDNHIVLNKDDNEECGDICPGTAKGKTNCPATVINGQFVERCWTHSHCQKVCPTICKSHGCTAEGLCCHSECLGNCSQPDDPTKCVACRNFYLDGRCVETCPPPYYHFQDWRCVNFSFCQDLHHKCKNSRRQGCHQYVIHNNKCIPECPSGYTMNSSNLLCTPCLGPCPKVCHLLEGEKTIDSVTSAQELRGCTVINGSLIINIRGGNNLAAELEANLGLIEEISGYLKIRRSYALVSLSFFRKLRLIRGETLEIGNYSFYALDNQNLRQLWDWSKHNLTTTQGKLFFHYNPKLCLSEIHKMEEVSGTKGRQERNDIALKTNGDKASCENELLKFSYIRTSFDKISDDDDKEQKLISEEDLN peptide: TFEDYLHNVVFVPRPS | – | – | – | – | Kd (Human IGF-I [10]): 0.49 µM; Kd [11]: 0.017 µM
13 | B1 | – | – | – | – | Kd (Human IGF-I [12]): > 1000 µM; Kd [13]: > 1000 µM
14 | VFENFLHNSIFVPRPE (Mature IGF-1R numbering; also called IGF-1R αCT; IGF1R-αCT) [IGF-1R classical α-chain C-terminal peptide (residues 691-706)] | – | – | – | – | Kd (Human IGF-I [14]): > 1000 µM; Kd [2]: 17.6 µM
15 | GSLDESFYDWFERQLG (Synthetic peptide, AusPep, >90% purity; also called Site 1 peptide, the 16 C-terminal residues of S519) [S519C16 peptide] | – | – | – | – | -TΔS^0 [7]: 2.87 kcal/mol; Kd [7]: 0.0026 µM; ΔH^0 [7]: -14.6 kcal/mol; -TΔS^0 [15]: -2.63 kcal/mol; ΔH^0 [15]: -7.89 kcal/mol; Kd [16]: 0.016 µM
